Data on two substances can be found in patent US7125541.

Experiment [1] deals with human endoglin (human) (UniProt P17813). As to the kind of experiment: competitive binding inhibition on HUVEC by FACS; unlabelled TEC-4 against competitor biotinylated TEC-11, ratio 1:1.
For experiment [2] the target is unchanged. As to the kind of experiment: competitive binding inhibition on HUVEC by FACS; unlabelled TEC-4 against competitor biotinylated TEC-11, ratio 1:100. In general terms: Flow cytometry measures light scatter and fluorescence of single cells or particles in a stream.
For experiment [3] the target is unchanged. Description: competitive binding inhibition on HUVEC by FACS; unlabelled TEC-11 against competitor biotinylated TEC-4, ratio 1:1.

For “TEC-4 (tumor endothelial cell antibody 4)”, the percent blocking of biotinylated antibody in the experiment with human endoglin (human) [1] came to 1%; with human endoglin (human) [2], 20%.
Take “TEC-11 (tumor endothelial cell antibody 11)”: the percent blocking of biotinylated antibody in the experiment with human endoglin (human) [3] was 51%.
